From US20190284279A1

Assays:
[1] = molecular target: human CD3 (CD3ε molecule) on the surface of Jurkat T cells (human) (UniProt P07766); test: cell-based or functional assay
[2] = molecular target: human CD19 antigen on the surface of B lymphoma cells (Raji, Daudi, IM-9, Namalwa) (human) (UniProt P15391); test: flow cytometry on Raji cells; control antibody at 0.556 µg/ml
[3] = molecular target: human CD19 antigen on the surface of B lymphoma cells (Raji, Daudi, IM-9, Namalwa) (human) (UniProt P15391); test: flow cytometry on Raji cells; control antibody at 15 µg/ml
[4] = molecular target: human CD3 (CD3ε molecule) on the surface of Jurkat T cells (human) (UniProt P07766); test: flow cytometry on Jurkat cells
[5] = molecular target: human CD19 antigen on the surface of B lymphoma cells (Raji, Daudi, IM-9, Namalwa) (human) (UniProt P15391); test: flow cytometry on Raji cells; control antibody at 5 µg/ml
[6] = molecular target: human CD19 antigen on the surface of B lymphoma cells (Raji, Daudi, IM-9, Namalwa) (human) (UniProt P15391); test: flow cytometry on Raji cells; control antibody at 0.185 µg/ml
[7] = molecular target: human CD19 antigen on the surface of B lymphoma cells (Raji, Daudi, IM-9, Namalwa) (human) (UniProt P15391); test: flow cytometry on Raji cells; control antibody at 1.667 µg/ml
[8] = molecular target: human CD19 antigen on the surface of B lymphoma cells (Raji, Daudi, IM-9, Namalwa) (human) (UniProt P15391); test: cell-based or functional assay

Row | Substance | ED50 of CD69 expression (Mean FL2-A) on Jurkat E6-1 cells co-cultured with Raji cells (10:1) [1] [ng/mL] | average fluorescence value [2] | average fluorescence value [3] | EC50 [4] [nM] | average fluorescence value [5] | average fluorescence value [6] | average fluorescence value [7] | ED50 of killing of Daudi cells by human PBMC (Fluo 3-AM release) [8] [ng/mL] | ED50 of killing of Namalwa cells by human PBMC (Fluo 3-AM release) [8] [ng/mL] | ED50 of killing of Raji cells by human PBMC (Fluo 3-AM release) [8] [ng/mL]
1 | OKT3 monoclonal antibody (mouse anti-human CD3 monoclonal antibody) | 1280 | 3390 | 3710 | 6.09 | 3460 | 3860 | 3570 | – | – | –
2 | BLI-193 (tandem single chain antibody structure, blinatumomab) (bispecific antibody) | – | – | – | – | – | – | – | 2.57 | 0.107 | 0.0868
